Source: US20160009812A1 (University of Texas, published 2016)

Columns and labels:
[1] = target: T1, total (intracellular) vimentin of human cancer cells (human, UniProt P08670 2-466); experiment: confocal microscopy, intracellular staining
T1 construct: Endogenous protein in lysates or in permeabilized cells; also called total vimentin; cytoplasmic vimentin

[2] = target: T2, cell-surface vimentin on canine circulating tumor cells (canine, UniProt A0A8C0N8E3 2-466); experiment: isolation and confocal microscopy of CTC from canine blood
T2 construct: also called CSV
T2 sequence (A0A8C0N8E3 2-466 limits assumed): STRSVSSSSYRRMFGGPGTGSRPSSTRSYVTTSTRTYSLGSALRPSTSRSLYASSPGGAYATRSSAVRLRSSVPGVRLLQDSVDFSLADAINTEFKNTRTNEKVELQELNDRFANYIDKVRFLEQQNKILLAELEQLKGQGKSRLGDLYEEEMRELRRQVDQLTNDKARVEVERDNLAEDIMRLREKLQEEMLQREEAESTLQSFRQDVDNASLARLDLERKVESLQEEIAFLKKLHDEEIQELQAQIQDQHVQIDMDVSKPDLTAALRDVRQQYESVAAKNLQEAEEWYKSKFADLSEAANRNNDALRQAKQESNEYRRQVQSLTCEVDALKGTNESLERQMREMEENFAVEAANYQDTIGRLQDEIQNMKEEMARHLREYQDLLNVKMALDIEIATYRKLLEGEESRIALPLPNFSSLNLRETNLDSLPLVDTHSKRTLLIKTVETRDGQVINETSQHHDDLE

[3] = target: vimentin-derived peptides (10, 12 and 15 aa peptides on the peptide microarray); experiment: peptide microarray; 84-1 at 0.2 ug/mL compared with 12-1 at 1 ug/mL
[4] = target: T3, cell-surface vimentin on mouse cancer cells (LM8) (mouse, UniProt P20152 2-466); experiment: immunofluorescence staining of mouse LM8 cells spiked into blood
T3 construct: whole, on cells; also called CSV
T3 sequence (P20152 2-466): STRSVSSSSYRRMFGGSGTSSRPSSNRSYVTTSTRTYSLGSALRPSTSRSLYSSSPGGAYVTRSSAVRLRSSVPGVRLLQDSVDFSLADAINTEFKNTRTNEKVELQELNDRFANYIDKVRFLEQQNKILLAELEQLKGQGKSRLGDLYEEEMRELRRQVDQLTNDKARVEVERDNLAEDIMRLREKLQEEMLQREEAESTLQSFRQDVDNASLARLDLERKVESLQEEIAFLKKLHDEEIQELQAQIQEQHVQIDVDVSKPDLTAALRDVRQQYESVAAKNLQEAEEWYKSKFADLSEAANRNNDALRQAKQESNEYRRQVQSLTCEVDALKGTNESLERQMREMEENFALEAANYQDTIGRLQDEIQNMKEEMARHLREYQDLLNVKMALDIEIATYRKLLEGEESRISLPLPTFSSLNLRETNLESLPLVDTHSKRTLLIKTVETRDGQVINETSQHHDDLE
Protocol: FIG. 2B: Detection of single cell spiked into blood using fluorescence microscopy. Single LM8 cell was isolated using serial dilution and spot analysis and spiked into 1 ml of blood. After RBC lysis, mononucleated cell population was stained for 84-1 mAb and AlexaFluor-488 secondary antibody to detect CSV positive cells. […] FIG. 2C: Isolation of single cell from whole blood. Single cell spiked into whole blood was isolated using EasySep based 84-1 positive and CD45 negative selection. This single cell was observable on the culture dish 2 hr after incubation at 37° C. FIG. 2D: Micrographs of cells isolated from blood were costained using antibodies against CSV, CD45 and a nuclear stain DRAQ5. Scale indicates 10 μm. FIG. 2E: Enumeration of CSV positive CTCs from healthy, primary and metastatic patient blood specimens. Blood from the primary cancer patients was used to select threshold of detection (dashed line).
Based on the detection of CSV in a range of cancer cell lines of both epithelial and non-epithelial origin, the inventors hypothesized that it could serve as a biomarker to detect CTC. […] From micrographs it is evident that single cell is detectable in whole blood utilizing fluorescence microscopy (FIG. 2B). […] The inventors further evaluated the sensitivity and specificity of 84-1 antibody using HLM3 and LM7 cells that are positive for 84-1 staining (Table 5).

[5] = target: T4, cell-surface vimentin (CSV) on human cancer cells (human, UniProt P08670 2-466); experiment: screening on osteosarcoma cell lines with and without vimentin on the cell surface
T4 construct: whole, on cells; Endogenous vimentin on the surface of non-permeabilized cancer cells
T4 sequence (P08670 2-466): as the sequence (A0A8C0N8E3 2-466 limits assumed) above, with G20A, T26S, A59V, S200N, D238E, D250E, M257V, N316T, A411S counted along it

T1 sequence (P08670 2-466 limits assumed): as the sequence (A0A8C0N8E3 2-466 limits assumed) above, with G20A, T26S, A59V, S200N, D238E, D250E, M257V, N316T, A411S counted along it

B1: 84-1 monoclonal antibody (antibody, V domains shown)
VH: QVQLKQSGPGLVQPSQSLSITCTVSGFSLTRYGVHWVRQSPGKGLEWLGVIWSGGSTDYNAAFISRLSFSKDNSKSQVFFKMNSLQANDTAIYYCARRSYYYAMDYWGQGTSVTVS
VL: DVLMTQTPLSLPVSLGDQASISCRSSQSIVHRIGNTYLEWYLQKPGQSPKLLIYKVSNRFSGVPDRFSGSGSGTDFTLKISRVEAEDLGVYYCFQGSHVPLTFGAGTKLEL
notes: Mouse monoclonal antibody from hybridoma 84-1, raised against rhVim with 6-His; It was detected with anti-mouse IgG; also called 84-1 mAb; 84-1 antibody
binding result [1]: binds | binding result [2]: binds | spot intensity relative to antibody 12-1 [3]: 2 fold | binding result [4]: binds | binding result [5]: binds
